Among the data in PMC10683481 are acetylation yield of MDM2 K51 (LC-MS/MS) with MDM2 (1.4 μM), PLIED-M1 (4 μM), TMP-BAHA 1 (10 μM) and acetyl donor 2 (100 μM), 37 °C, 5 h values, retold here.

The target of the test is GST-PLIED-M1 (E. coli) (UniProt P0ABQ4).

“Recombinant human MDM2 (17-125) (from UniProt Q00987 17-125) (domain or fragment)” returned an acetylation yield of MDM2 K51 (LC-MS/MS) with MDM2 (1.4 μM), PLIED-M1 (4 μM), TMP-BAHA 1 (10 μM) and acetyl donor 2 (100 μM), 37 °C, 5 h of 70%.
